In the assay the target is EGF receptor (UniProt P00533 25-645). In words: MST.

B1: EGFL7 (natural protein, UniProt Q9UHF1 24-273, looked up)
chain: YRPGRRVCAVRAHGDPVSESFVQRVYQPFLTTCDGHRACSTYRTIYRTAYRRSPGLAPARPRYACCPGWKRTSGLPGACGAAICQPPCRNGGSCVQPGRCRCPAGWRGDTCQSDVDECSARRGGCPQRCVNTAGSYWCQCWEGHSLSADGTLCVPKGGPPRVAPNPTGVDSAMKEEVQRLQSRVDLLEEKLQLVLAPLHSLASQALEHGLPDPGSLLVHSFQQLGRIDSLSEQISFLEEQLGSCSCKKDS
In general, Kd refers to the free concentration of one partner at which half of the binding sites on the other are occupied at equilibrium, for simple one-to-one binding. A higher Kd goes with lower affinity. In turn, B1 came in with a Kd of 384 ± 76.5 nM.

The values above are taken from paper PMC4325230 (Stem Cell Reports, 2015).
